Data set [1] deals with T1, CLUST.143952 3300028591 effector (Ga0247611_10000032_233) (uncultured metagenome (sheep rumen)).
T1 chain: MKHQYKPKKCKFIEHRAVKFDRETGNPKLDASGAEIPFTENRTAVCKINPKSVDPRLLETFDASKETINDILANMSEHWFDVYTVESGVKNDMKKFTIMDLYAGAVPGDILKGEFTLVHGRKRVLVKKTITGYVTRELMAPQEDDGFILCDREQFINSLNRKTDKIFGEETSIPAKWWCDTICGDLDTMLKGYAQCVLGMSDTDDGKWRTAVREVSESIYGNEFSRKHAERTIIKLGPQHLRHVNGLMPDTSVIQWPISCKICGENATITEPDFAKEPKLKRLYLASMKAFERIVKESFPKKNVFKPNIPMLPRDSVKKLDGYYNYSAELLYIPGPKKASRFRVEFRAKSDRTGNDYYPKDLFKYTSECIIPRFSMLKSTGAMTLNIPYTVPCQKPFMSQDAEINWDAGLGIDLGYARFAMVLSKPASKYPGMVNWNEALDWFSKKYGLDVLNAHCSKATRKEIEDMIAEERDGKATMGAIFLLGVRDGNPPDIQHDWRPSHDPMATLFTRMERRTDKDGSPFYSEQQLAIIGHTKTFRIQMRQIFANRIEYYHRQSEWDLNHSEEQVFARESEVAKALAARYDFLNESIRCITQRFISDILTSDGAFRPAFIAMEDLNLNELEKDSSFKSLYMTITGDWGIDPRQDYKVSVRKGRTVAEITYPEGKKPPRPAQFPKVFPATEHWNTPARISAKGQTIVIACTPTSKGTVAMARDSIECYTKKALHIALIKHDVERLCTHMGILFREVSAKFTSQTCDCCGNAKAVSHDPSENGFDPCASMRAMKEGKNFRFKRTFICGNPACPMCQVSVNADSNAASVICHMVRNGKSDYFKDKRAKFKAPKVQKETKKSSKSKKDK
The experiment in a line: PAM 5'-G-3'; 37 C, in vitro transcription/translation; ratio normalised to non-target guide (SEQ 93). As to conditions: tags: FDA assay, one-pot in vitro transcription/translation. From the text:
(§1) In this assay, an active CRISPR system designed to target GFP binds and cleaves the double-stranded DNA region encoding GFP, resulting in depletion of GFP fluorescence. The FDA assay involves in vitro transcription and translation, allowing production of an RNP from a DNA template encoding a CLUST.143952 effector and a DNA template containing a pre-crRNA sequence under a T7 promoter with direct repeat (DR)-spacer-direct repeat (DR); the spacer targeted GFP. In the same one-pot reaction, GFP and RFP were also produced as both the target and the fluorescence reporter (FIG. 8A). The target GFP plasmid sequence is set forth in SEQ ID NO: 86, and the RFP plasmid sequence is set forth in SEQ ID NO: 87. GFP and RFP fluorescence values were measured every 20 min at 37° C. for 12 hr, using a TECAN Infinite F Plex plate reader. Since RFP was not targeted, its fluorescence was not affected and was therefore used as an internal signal control.
(§2) 2 GFP targets (plus 2 non-targets) were designed for the effector of SEQ ID NO: 1. RNA guide sequences (pre-crRNAs for Target 1 and Non-Target 2 and mature crRNAs for Target 3 and Non-Target 4), target sequences, and the non-target control sequences used for the FDA assay are listed in TABLE 9. […]
(§3) GFP signal was normalized to RFP signal, then the average fluorescence of three technical replicates was taken at each time point. […]

The target in data set [2] is T1, CLUST.143952 3300028591 effector …. Description: PAM 5'-G-3'; 37 C, in vitro transcription/translation; ratio normalised to non-target guide (SEQ 90). The settings on record: tags: FDA assay, one-pot in vitro transcription/translation.
Text: as §1, §2, §3

B1: mature crRNA Target 3 ; GFP Target 3 (ssRNA ; dsDNA)
RNA: UAUGGUAGAGGUGCCACCGGUUUACAUGGCGCCGAUACCAAGGUAUGAAAUUUAUCAUUAAAG
DNA 1: AAGGTATGAAATTTATCATTAAAG
DNA 2: CTTTAATGATAAATTTCATACCTT
For the molecule B1, the activity in data set [1] is over 1 GFP depletion ratio.

B2: pre-crRNA Target 1 (DR-spacer-DR) ; GFP Target 1 (ssRNA ; dsDNA)
RNA: UAUGGUAGAGGUGCCACCGGUUUACAUGGCGCCGAUACCAAGGUAUGAAAUUUAUCAUUAAAGGCGUAUGGUAGAGGUGCCACCGGUUUACAUGGCGCCGAUACCUAACCCCUCUCUAAACGGAGGGGUUU
DNA 1: AAGGTATGAAATTTATCATTAAAGGCG
DNA 2: CGCCTTTAATGATAAATTTCATACCTT
For the molecule B2, in data set [2], the activity is over 1 GFP depletion ratio.

The values are drawn from US20220282283, “NOVEL CRISPR DNA TARGETING ENZYMES AND SYSTEMS” (ARBOR BIOTECHNOLOGIES, INC., published 2022).
